The term stoichiometry N denotes a count of units in the complex or per binding partner.

Results on four compounds are retold here after publication PMC2607015, “The Cell Adhesion Molecule “CAR” and Sialic Acid on Human Erythrocytes Influence Adenovirus In Vivo Biodistribution” (PLoS Pathogens, 2009).

Test [1] concerns the target T1, CAV-2 fiber head (CAV-2H^wt) (Canine adenovirus 2 strain Toronto A 26-61, UniProt Q65914).
T1 construct: gene L5; fiber head domain residues 358-542, N-terminal His-tag cleaved with TEV, pPROEX HTb; homotrimer
Briefly: X-ray crystal structure ([…] Å). The settings on record: crystals grown with 8 mM and soaked in about 80 mM ligand, pH 7.4; Neu5Ac moiety bound at trimer periphery (Asn435, Ser419, Ser416, Gln417, Arg515). It counts as binding.

Test [2] addresses T2, HAd37 fiber head in complex with CAR D1 (Human adenovirus D37, UniProt Q64823).
T2 construct: gene L5; fiber head residues 177-365 with CAR domain D1; one monomer of each in asymmetric unit (space group I23, trimer by symmetry); with Coxsackievirus and adenovirus receptor (human), Ig-like domain D1
Put plainly: X-ray crystal structure ([…] Å). It counts as binding. Particulars: ligand soaked at 10 to 50 mM; ternary complex with CAR D1; Neu5Ac site of fiber head, not overlapping CAR site; HAd37 Neu5Ac site near the three-fold axis.

A further test has as its target CAR D1 (human) (UniProt P78310).
The target of test [3] is wild type CAV-2 fiber head (canine adenovirus serotype 2 (CAV-2)) (UniProt Q65914). Put plainly: crystal structure; untagged CAV-2 fiber head crystallised with sialyl-D-lactose; 1.9 Å.
Test [4] shares this target. Put plainly: crystal structure; crystals of the CAV-2 fiber head - CAR D1 complex (space group I422) soaked with 10 to 50 mM sialyl-D-lactose; 2.9 Å.

Chain of CAR D1 (human) (P78310 20-140): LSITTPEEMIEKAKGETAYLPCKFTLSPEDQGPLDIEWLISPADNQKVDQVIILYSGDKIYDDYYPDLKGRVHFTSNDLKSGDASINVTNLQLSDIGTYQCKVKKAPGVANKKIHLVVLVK

As for `CC(=O)N[C@H]1[C@H]([C@H](O)[C@H](O)CO)O[C@@](O[C@H]2[C@@H](O)[C@@H](CO)O[C@@H](O[C@H]3[C@H](O)[C@@H](O)C(O)O[C@@H]3CO)[C@@H]2O)(C(=O)O)C[C@@H]1O` (stereo partly drawn) [sialyl-D-lactose, α2-3 N-acetylneuraminosyl-D-lactose], the “X-ray crystal structure (1.9 Å)” value in test [1] is “clear density for six N-acetyl neuraminic acid (Neu5AC) moieties in the asymmetric unit”. For the same compound, the “X-ray crystal structure (1.55 Å)” value in test [2] is “one CAR D1 molecule and one sialyl-D-lactose molecule in the asymmetric unit”.

With “CAV-2H^CAR−: CAV-2 fiber head with E384A mutation (CAR binding site) (from UniProt Q65914 358-542) (domain or fragment)”, the fold reduction of CAV-2 hemagglutination of human erythrocytes (CAR on the erythrocytes) after pre-incubating the erythrocytes with the fiber head in the test with CAR D1 (human) was 2 fold.

In the test with CAR D1 (human), “CAV-2H^SA−1: CAV-2 fiber head mutant R515A (from UniProt Q65914 358-542) (domain or fragment)” gave a fold reduction of CAV-2 hemagglutination of human erythrocytes (CAR on the erythrocytes) after pre-incubating the erythrocytes with the fiber head of 16 fold.

In the case of “wild type CAV-2 fiber head (from UniProt Q65914 358-542) (domain or fragment)”, the fold reduction of CAV-2 hemagglutination of human erythrocytes (CAR on the erythrocytes) after pre-incubating the erythrocytes with the fiber head with CAR D1 (human) was over 256 fold. The stoichiometry N in test [3] and in test [4] was 3 throughout.
